Test results published in patent US20160090637A1 (published 2016).

Target: T1, IL-10R1 S138G homozygous mutant on primary B-CLL cells (human, UniProt Q13651 22-578)
T1 construct: Endogenous receptor on purified B-CLL cells of patients homozygous (GG) for the mutation; also called S159G of the IL-10R1 precursor; GG homozygous mutant
T1 sequence: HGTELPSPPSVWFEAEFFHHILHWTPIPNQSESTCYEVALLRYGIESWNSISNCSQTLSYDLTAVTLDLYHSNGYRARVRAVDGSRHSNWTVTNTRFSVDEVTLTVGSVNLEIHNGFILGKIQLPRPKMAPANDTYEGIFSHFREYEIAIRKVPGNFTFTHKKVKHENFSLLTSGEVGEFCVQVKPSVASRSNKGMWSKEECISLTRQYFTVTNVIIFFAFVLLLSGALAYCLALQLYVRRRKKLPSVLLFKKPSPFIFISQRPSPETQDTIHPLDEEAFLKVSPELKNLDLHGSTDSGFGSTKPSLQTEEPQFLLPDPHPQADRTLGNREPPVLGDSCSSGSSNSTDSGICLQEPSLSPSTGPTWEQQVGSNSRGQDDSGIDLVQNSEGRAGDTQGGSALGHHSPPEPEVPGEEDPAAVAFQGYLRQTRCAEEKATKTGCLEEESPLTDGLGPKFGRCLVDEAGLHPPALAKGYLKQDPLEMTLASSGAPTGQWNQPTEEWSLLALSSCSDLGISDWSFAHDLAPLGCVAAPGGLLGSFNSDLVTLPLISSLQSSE
Assay: flow cytometry, biotinylated IL-10 plus avidin-FITC on primary B-CLL cells; weaker than on wild-type cells
Protocol: IL-10 binding with B-CLL cells was determined using Flurokine® Biotinylated Human Interleukin 10 Kit (R&D Systems) per the protocol. 25 μl (1×10⁵) purified B-CLL cells were incubated with 10 μl biotinylated negative control reagents or biotinylated IL-10 for 1-hour at 2-8° C., then incubated with 10 μl of avidin-FITC for a further 30 minutes at 2-8° C. in the dark. Wash the cells twice with 2 ml of 1×RDF buffer 2 times. Add 200 μl 1×RDF buffer into each tube and do flow cytometry analysis.

B1: Biotinylated Human Interleukin 10 (Flurokine kit, R&D Systems) (ligand, UniProt P22301 19-178, looked up)
chain: SPGQGTQSENSCTHFPGNLPNMLRDLRDAFSRVKTFFQMKDQLDNLLLKESLLEDFKGYLGCQALSEMIQFYLEEVMPQAENQDPDIKAHVNSLGENLKTLRLRLRRCHRFLPCENKSKAVEQVKNAFNKLQEKGIYKAMSEFDIFINYIEAYMTMKIRN
modifications: biotinylated (sites not given) in the binding assay; unlabelled rh-IL-10 in the culture assays
notes: The STAT assays used rh-IL-10 (R&D Systems) at 10 ng/ml; also called IL-10; rh-IL-10
Question: Does B1 bind?
Answer: Result: binds
